Results taken from article PMC5177622, “Multivalent Histone and DNA Engagement by a PHD/BRD/PWWP Triple Reader Cassette Recruits ZMYND8 to K14ac-Rich Chromatin” (Cell Reports, 2016).
One block for each substance: values may come before it.

Experiments:
[1] = target: histone H3 K36me (m36); test: anti-FLAG immunoprecipitation and western blot, quantified; conditions: HEK293 cells transiently transfected; three biological replicates; anti-H3K36me blot; parent: est. 1.0; read off a plot
[2] = target: histone H3 K36me3 (m36); test: as above; conditions: HEK293 cells transiently transfected; three biological replicates; anti-H3K36me3 blot; parent: est. 1.0; read off a plot
[3] = target: histone H3 K36me2 (m36); test: as above; conditions: HEK293 cells transiently transfected; three biological replicates; anti-H3K36me2 blot; parent: est. 1.0; read off a plot
[4] = target: histone H3 K9ac (m36); test: as above; conditions: HEK293 cells transiently transfected; three biological replicates; anti-H3K9ac blot; parent: est. 1.0; read off a plot
[5] = target: ZMYND8 PHD/BRD/PWWP triple reader cassette (Q83-S406), wild type (human); test: ITC; ITC200; peptides titrated into a solution of ZMYND8; single-site binding model; n = 3

- ratio to parent [1]: 0.28
- ratio to parent [2]: 0.39
- ratio to parent [3]: 0.08
Substance: 3×FLAG-ZMYND8 full length, wild type (from UniProt Q9ULU4-13) F288A; W291A

- ratio to parent [4]: 0.19
Substance: 3×FLAG-ZMYND8 full length, wild type (from UniProt Q9ULU4-13) N228F

- Kd [5]: 6.8 µM
Substance: Histone H3.3 40-aa recombinant peptide, K14ac (from UniProt P84243 2-41)
